This note sets out measurements from article PMC8292550, “Molecular characterization of direct interactions between MPP1 and flotillins” (Scientific Reports, 2021).

B3: recombinant His-tagged flotillin 2 (natural protein, UniProt Q14254 1-428, looked up)
chain: MGNCHTVGPNEALVVSGGCCGSDYKQYVFGGWAWAWWCISDTQRISLEIMTLQPRCEDVETAEGVALTVTGVAQVKIMTEKELLAVACEQFLGKNVQDIKNVVLQTLEGHLRSILGTLTVEQIYQDRDQFAKLVREVAAPDVGRMGIEILSFTIKDVYDKVDYLSSLGKTQTAVVQRDADIGVAEAERDAGIREAECKKEMLDVKFMADTKIADSKRAFELQKSAFSEEVNIKTAEAQLAYELQGAREQQKIRQEEIEIEVVQRKKQIAVEAQEILRTDKELIATVRRPAEAEAHRIQQIAEGEKVKQVLLAQAEAEKIRKIGEAEAAVIEAMGKAEAERMKLKAEAYQKYGDAAKMALVLEALPQIAAKIAAPLTKVDEIVVLSGDNSKVTSEVNRLLAELPASVHALTGVDLSKIPLIKKATGVQV
notes: flotillin 2; also called FL2
B4: recombinant His-tagged flotillin 1 (natural protein, UniProt O75955-1 1-427, looked up)
chain: MFFTCGPNEAMVVSGFCRSPPVMVAGGRVFVLPCIQQIQRISLNTLTLNVKSEKVYTRHGVPISVTGIAQVKIQGQNKEMLAAACQMFLGKTEAEIAHIALETLEGHQRAIMAHMTVEEIYKDRQKFSEQVFKVASSDLVNMGISVVSYTLKDIHDDQDYLHSLGKARTAQVQKDARIGEAEAKRDAGIREAKAKQEKVSAQYLSEIEMAKAQRDYELKKAAYDIEVNTRRAQADLAYQLQVAKTKQQIEEQRVQVQVVERAQQVAVQEQEIARREKELEARVRKPAEAERYKLERLAEAEKSQLIMQAEAEAASVRMRGEAEAFAIGARARAEAEQMAKKAEAFQLYQEAAQLDMLLEKLPQVAEEISGPLTSANKITLVSSGSGTMGAAKVTGEVLDILTRLPESVERLTGVSISQVNHKPLRTA
notes: flotillin 1; the discussion speaks of bacterially expressed proteins; also called FL1

The target of assay [1] is B3. In words: SPR; His-tagged flotillin 1 or 2 captured on a Ni-NTA sensor chip (about 4000 RU), BIAcore T200; untagged MPP1 or its truncated mutants as analytes (at least five concentrations, 50-2000 nM), association 360 s, dissociation 600 s; HBS-T; global fit, 1:1 Langmuir model with mass transport step. The note with it: both partners purified. For orientation: In SPR one partner is held on a chip, and binding of the other changes the refractive index at the surface.

Assay [2] concerns the target B3. The assay is described as above. The note with it: both partners purified. The source holds these as a separate data set.
In assay [3] the target is B4. The assay is described as above. To be noted: both partners purified.
For assay [4], the target named is T1, full length recombinant MPP1 (human, UniProt Q00013 1-466).
T1 construct: MPP1 (p55), human erythroid, full length; also called p55; MPP1(p55)
T1 sequence (looked up): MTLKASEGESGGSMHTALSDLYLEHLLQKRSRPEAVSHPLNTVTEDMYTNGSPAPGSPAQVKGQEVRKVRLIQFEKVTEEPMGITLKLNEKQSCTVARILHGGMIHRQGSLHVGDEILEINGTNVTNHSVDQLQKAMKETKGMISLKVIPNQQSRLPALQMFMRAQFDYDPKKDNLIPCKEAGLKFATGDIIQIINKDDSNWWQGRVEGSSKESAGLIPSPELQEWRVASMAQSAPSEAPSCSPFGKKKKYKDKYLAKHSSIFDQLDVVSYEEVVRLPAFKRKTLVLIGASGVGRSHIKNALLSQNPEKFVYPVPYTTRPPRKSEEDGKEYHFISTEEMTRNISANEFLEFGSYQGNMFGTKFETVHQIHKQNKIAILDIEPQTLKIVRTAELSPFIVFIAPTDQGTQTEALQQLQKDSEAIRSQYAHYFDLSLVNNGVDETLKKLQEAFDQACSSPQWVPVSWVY
The assay is described as above. The note with it: both partners purified.

The target in assay [5] is flotillins (endogenous, HEL cells).
Assay [6] has the same target. This is another data set of the same source.

B1: MPP1-Mut2 (residues 151–237) (domain or fragment, human, UniProt Q00013 151-237, looked up)
chain: NQQSRLPALQMFMRAQFDYDPKKDNLIPCKEAGLKFATGDIIQIINKDDSNWWQGRVEGSSKESAGLIPSPELQEWRVASMAQSAPS
notes: MPP1 (p55), human, residues 151-237
As a reminder, the Kd is the concentration at which binding is half-saturated. Broadly, the koff is the first-order rate constant of dissociation. By kon is commonly meant the rate constant with which the complex forms. Regarding B1, the Kd in assay [1] was determined as 686 nM; in assay [2], 982 nM; in assay [3], 702 nM. The koff came to 0.0016 s⁻¹ in assay [2] and 0.00118 s⁻¹ in assay [3]. For the same molecule, the values for the kon in assay [2] and in assay [3] were 1630 M⁻¹ s⁻¹ and 1680 M⁻¹ s⁻¹, respectively.

B2: MPP1-Mut4 (residues 231–466) (domain or fragment, human, UniProt Q00013 231-466, looked up)
chain: MAQSAPSEAPSCSPFGKKKKYKDKYLAKHSSIFDQLDVVSYEEVVRLPAFKRKTLVLIGASGVGRSHIKNALLSQNPEKFVYPVPYTTRPPRKSEEDGKEYHFISTEEMTRNISANEFLEFGSYQGNMFGTKFETVHQIHKQNKIAILDIEPQTLKIVRTAELSPFIVFIAPTDQGTQTEALQQLQKDSEAIRSQYAHYFDLSLVNNGVDETLKKLQEAFDQACSSPQWVPVSWVY
notes: MPP1 (p55), human, residues 231-466; A FLAG form (p3XFLAG-CMV-10) was expressed in HEL cells for the functional tests only
For B2, in assay [2], the Kd stood at 50.2 nM, the koff turned out to be 0.000281 s⁻¹ and the kon worked out at 5600 M⁻¹ s⁻¹. Further, in assay [3], the Kd was determined as 39.2 nM, the koff was 0.000319 s⁻¹ and the kon was found to be 8130 M⁻¹ s⁻¹.
On to B3, for which, in assay [4], the Kd worked out at 31 nM, the koff worked out at 0.00128 s⁻¹ and the kon is 41300 M⁻¹ s⁻¹.
In the same order, the values of B4 are 22.8 nM, 0.00103 s⁻¹ and 45000 M⁻¹ s⁻¹.

B5: endogenous MPP1 (HEL cells) (natural protein)
chain: MTLKASEGESGGSMHTALSDLYLEHLLQKRSRPEAVSHPLNTVTEDMYTNGSPAPGSPAQVKGQEVRKVRLIQFEKVTEEPMGITLKLNEKQSCTVARILHGGMIHRQGSLHVGDEILEINGTNVTNHSVDQLQKAMKETKGMISLKVIPNQQSRLPALQMFMRAQFDYDPKKDNLIPCKEAGLKFATGDIIQIINKDDSNWWQGRVEGSSKESAGLIPSPELQEWRVASMAQSAPSEAPSCSPFGKKKKYKDKYLAKHSSIFDQLDVVSYEEVVRLPAFKRKTLVLIGASGVGRSHIKNALLSQNPEKFVYPVPYTTRPPRKSEEDGKEYHFISTEEMTRNISANEFLEFGSYQGNMFGTKFETVHQIHKQNKIAILDIEPQTLKIVRTAELSPFIVFIAPTDQGTQTEALQQLQKDSEAIRSQYAHYFDLSLVNNGVDETLKKLQEAFDQACSSPQWVPVSWVY
B5: the fluorescence lifetime of di-4-ANEPPDHQ (FLIM) in the plasma membrane of HEL cells transfected with MPP1-Mut4-FLAG (~ 3.83 ns) compared to FLAG control (~ 3.98 ns) in assay [5] was 0.15 ns. The reduction of the pERK1/2 level after insulin stimulation in HEL cells transfected with MPP1-Mut4 compared to FLAG control in assay [6] turned out to be 46%.

B6: MPP1-Mut3 (residues 211–292) (domain or fragment, human, UniProt Q00013 211-292, looked up)
chain: SKESAGLIPSPELQEWRVASMAQSAPSEAPSCSPFGKKKKYKDKYLAKHSSIFDQLDVVSYEEVVRLPAFKRKTLVLIGASG
notes: MPP1 (p55), human, residues 211-292
Turning to B6, in assay [2], the Kd is 199 nM, the koff was found to be 0.000828 s⁻¹ and the kon is 4170 M⁻¹ s⁻¹. Also, in assay [3], the dissociation constant Kd was determined as 137 nM, the koff amounted to 0.000515 s⁻¹ and the kon came out at 3750 M⁻¹ s⁻¹.
